According to US20220306751A1 (MYTHIC THERAPEUTICS, published 2022):
Changes are numbered by the printed parent chain.

T1: CD123 Protein, His Tag, Acro Biosciences Cat. No. ILA-H52H6 (Homo sapiens (Human), UniProt P26951 19-305)
T1 construct: Bought protein; not shown: His tag
T1 sequence: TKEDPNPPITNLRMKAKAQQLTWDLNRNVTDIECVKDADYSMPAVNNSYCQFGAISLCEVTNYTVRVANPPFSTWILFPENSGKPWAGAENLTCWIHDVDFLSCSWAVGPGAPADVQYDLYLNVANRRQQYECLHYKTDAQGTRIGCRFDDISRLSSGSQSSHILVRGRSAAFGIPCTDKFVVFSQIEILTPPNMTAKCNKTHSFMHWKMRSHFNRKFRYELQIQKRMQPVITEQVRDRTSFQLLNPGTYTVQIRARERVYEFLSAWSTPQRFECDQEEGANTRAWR

B1: MYT1268 (antibody, V domains shown)
VH: QVQLVQSGAEVKKPGASVKVSCKASGYIFTSSIMHWVRQAPGQGLEWIGYIKPYNHGTKYNEKFKGRATLTSDRSTSTAYMELSSLRSEDTAVYYCAREGGNDYYDTMDYWGQGTLVTVSS
VL: DIQMTQSPSSLSASVGDRVTITCRASQDINSYLSWFQQKPGKAPKTLIYRVNRLVDGVPSRFSGSGSGNDYTLTISSLQPEDFATYYCLQYDAFPYTFGQGTKVEIK
notes: IgG
B2: MYT1290 (antibody, V domains shown)
VH: B1 VH with H56D, M108H
VL: B1 VL
notes: IgG
B3: MYT1288 (antibody, V domains shown)
VH: B1 VH with H56D, D106H
VL: B1 VL
notes: IgG
B4: MYT1274 (antibody, V domains shown)
VH: B1 VH with H56D, E62H
VL: B1 VL
notes: IgG
B5: MYT2759 (antibody, V domains shown)
VH: B1 VH with H35A, H56D, D109H
VL: B1 VL
notes: IgG
B6: MYT1279 (antibody, V domains shown)
VH: B1 VH with H56D, A97H
VL: B1 VL
notes: IgG
B7: MYT2755 (antibody, V domains shown)
VH: B1 VH with Y27H, H56D, T107H
VL: B1 VL
notes: IgG
B8: MYT2761 (antibody, V domains shown)
VH: B1 VH with H56D, Y105H, D109H
VL: B1 VL
notes: IgG
B9: MYT1287 (antibody, V domains shown)
VH: B1 VH with H56D, Y105H
VL: B1 VL
notes: IgG
B10: MYT2764 (antibody, V domains shown)
VH: B1 VH with Y27H, H35A, H56D, T107H
VL: B1 VL
notes: IgG
B11: MYT1289 (antibody, V domains shown)
VH: B1 VH with H56D, T107H
VL: B1 VL
notes: IgG
B12: MYT1270 (antibody, V domains shown)
VH: B1 VH with H56D, T58H
VL: B1 VL
notes: IgG
B13: MYT1283 (antibody, V domains shown)
VH: B1 VH with H56D, G101H
VL: B1 VL
notes: IgG
B14: MYT2773 (antibody, V domains shown)
VH: B1 VH with H56D
VL: B1 VL with R24H
notes: IgG
B15: MYT1291 (antibody, V domains shown)
VH: B1 VH with H56D, D109H
VL: B1 VL
notes: IgG
B16: MYT2762 (antibody, V domains shown)
VH: B1 VH with H56D, T107H, D109H
VL: B1 VL
notes: IgG
B17: MYT2753 (antibody, V domains shown)
VH: B1 VH with Y27H, H35A, H56D
VL: B1 VL
notes: IgG
B18: MYT1275 (antibody, V domains shown)
VH: B1 VH with H56D, K63H
VL: B1 VL
notes: IgG
B19: MYT1276 (antibody, V domains shown)
VH: B1 VH with H56D, F64H
VL: B1 VL
notes: IgG
B20: MYT2763 (antibody, V domains shown)
VH: B1 VH with Y27H, H35A, H56D, Y105H
VL: B1 VL
notes: IgG
B21: MYT1277 (antibody, V domains shown)
VH: B1 VH with H56D, K65H
VL: B1 VL
notes: IgG
B22: MYT2754 (antibody, V domains shown)
VH: B1 VH with Y27H, H56D, Y105H
VL: B1 VL
notes: IgG
B23: MYT1271 (antibody, V domains shown)
VH: B1 VH with H56D, K59H
VL: B1 VL
notes: IgG
B24: MYT1280 (antibody, V domains shown)
VH: B1 VH with H56D, R98H
VL: B1 VL
notes: IgG
B25: MYT2760 (antibody, V domains shown)
VH: B1 VH with H56D, Y105H, T107H
VL: B1 VL
notes: IgG
B26: MYT1292 (antibody, V domains shown)
VH: B1 VH with H56D, Y110H
VL: B1 VL
notes: IgG
B27: MYT1278 (antibody, V domains shown)
VH: B1 VH with H56D, G66H
VL: B1 VL
notes: IgG
B28: MYT1284 (antibody, V domains shown)
VH: B1 VH with H56D, N102H
VL: B1 VL
notes: IgG
B29: MYT1285 (antibody, V domains shown)
VH: B1 VH with H56D, D103H
VL: B1 VL
notes: IgG
B30: MYT2757 (antibody, V domains shown)
VH: B1 VH with H35A, H56D, Y105H
VL: B1 VL
notes: IgG
B31: MYT2756 (antibody, V domains shown)
VH: B1 VH with Y27H, H56D, D109H
VL: B1 VL
notes: IgG
B32: MYT1273 (antibody, V domains shown)
VH: B1 VH with H56D, N61H
VL: B1 VL
notes: IgG
B33: MYT1269 (antibody, V domains shown)
VH: B1 VH with H56D, G57H
VL: B1 VL
notes: IgG
B34: MYT1286 (antibody, V domains shown)
VH: B1 VH with H56D, Y104H
VL: B1 VL
notes: IgG
B35: MYT1282 (antibody, V domains shown)
VH: B1 VH with H56D, G100H
VL: B1 VL
notes: IgG
B36: MYT1272 (antibody, V domains shown)
VH: B1 VH with H56D, Y60H
VL: B1 VL
notes: IgG

Target: T1, CD123 Protein, His Tag, Acro …
Test: BLI, IgG on anti-human Fc sensor, 50 nM CD123, pH 7.4 and pH 5.4
Text: We selected IMGN632 (Heavy chain SEQ ID NO: 1, Light chain SEQ ID NO: 2) as a CD123-binding monoclonal antibody for pH engineering via histidine scanning. Briefly, CDRs in the heavy chain were identified using the methods described by Kabat et al (Kabat et al. (1992) Sequences of Proteins of Immunological Interest, DIANE publishing) and IMGT (Lefranc M P (1999) “The IMGT unique numbering for Immunoglobulins, T cell receptors and Ig-like domains” The Immunologist 7, 132-136), and for each CDR, residues falling under either or both Kabat and IMGT CDR definitions were called as CDR residues. To generate pH-dependent sequence variants, individual amino acid residues within the heavy chain CDRs were systematically substituted with a histidine, one at a time (MYT1252-MYT1292). In cases where the starting CDR residue was a histidine, it was mutated to an alanine. Antibody variants with only one histidine or alanine mutation in a heavy chain CDR were generated by co-transfection of Expi293 cells with a) one heavy chain sequence variant, and b) the corresponding starting ABPC light chain using methods known to the art. After allowing for four days of protein expression, cell culture supernatants were collected, quantified by SDS-PAGE analysis (FIG. 1), and the pH dependence of the variant was evaluated using biolayer interferometry (BLI) on an Octet RED 384 instrument. For constructs MYT1252, MYT1254-MYT1287, and MYT1289-1292, 104, of cell culture supernatant was diluted into 1904, of 1× PBST pH 7.4. For MYT1253 and MYT1288 254, and 504, of cell culture supernatant was diluted into 1754, and 1504, respectively. […] The resulting diluted supernatants were then captured on an anti-human Fc sensor (Forte Bio). A baseline was established using 1× PBST (50 mM Potassium Phosphate Buffer+150 mM NaCl+0.05% Tween 20) pH 7.4, and the sensor was associated with 50 nM of CD123 (CD123 Protein, His Tag, Acro Biosciences Cat. No. ILA-H52H6, Lot No. 1741d-89CF1-KB) in 1×PBST pH 7.4 for 120 sec to generate an association curve. In the dissociation phase, the antibody-antigen complex on the sensor was exposed to 1× PBST pH 7.4 for 300-600 sec. Baseline, association, and dissociation were repeated using 1×PBST pH 5.4 throughout in a separate condition.

| Binder | binding result |
| --- | --- |
| B1 | binds |
| B2 | binds |
| B3 | binds |
| B4 | binds |
| B5 | binds |
| B6 | binds |
| B7 | binds |
| B8 | binds |
| B9 | binds |
| B10 | binds |
| B11 | binds |
| B12 | binds |
| B13 | binds |
| B14 | binds |
| B15 | binds |
| B16 | binds |
| B17 | binds |
| B18 | binds |

| Binder | binding result |
| --- | --- |
| B19 | binds |
| B20 | binds |
| B21 | binds |
| B22 | binds |
| B23 | binds |
| B24 | binds |
| B25 | binds |
| B26 | binds |
| B27 | binds |
| B28 | binds |
| B29 | binds |
| B30 | binds |
| B31 | binds |
| B32 | binds |
| B33 | binds |
| B34 | binds |
| B35 | binds |
| B36 | binds |
